Test system: Escherichia coli TOP10
Assay: shrunken log2 fold change of peptide-encoding DNA abundance (4.5 h post-induction vs induction); higher = less antimicrobial activity (less host growth inhibition)
Details: time post-induction: 4.5 h; library: site-saturation at positions 5, 18, 19, 20
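Note: peptides expressed intracellularly from a pBAD plasmid library in pooled LB shake-flask culture, induced with 0.3% L-arabinose, DNA abundance read by NGS, three biological replicates, DESeq2 with apeglm shrinkage.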

Row | Sequence | shrunken log2 fold change
1 | RRIRTRPPRLPRPRPRPYYEPRP | -0.0557
2 | RRIRWRPPRLPRPRPRPPFIPRP | -0.117
3 | RRIRSRPPRLPRPRPRPFMCPRP | -0.255
4 | RRIRCRPPRLPRPRPRPWSWPRP | 0.0159
5 | RRIRRRPPRLPRPRPRPCFYPRP | -0.187
6 | RRIRPRPPRLPRPRPRPMMVPRP | -0.0739
7 | RRIRFRPPRLPRPRPRPHTVPRP | 0.0365
8 | RRIRKRPPRLPRPRPRPQKFPRP | 0.0144
9 | RRIRARPPRLPRPRPRPHKEPRP | 0.131
10 | RRIRTRPPRLPRPRPRPPVWPRP | 0.0152
11 | RRIRSRPPRLPRPRPRPEKTPRP | 0.125
12 | RRIRNRPPRLPRPRPRPPCHPRP | -0.386
13 | RRIRGRPPRLPRPRPRPFKFPRP | -0.11
14 | RRIRERPPRLPRPRPRPKMAPRP | 2.39
15 | RRIRIRPPRLPRPRPRPYGDPRP | 0.0112
16 | RRIRERPPRLPRPRPRPVHSPRP | -0.0947
17 | RRIRQRPPRLPRPRPRPHMAPRP | -0.0694
18 | RRIRMRPPRLPRPRPRPALEPRP | 0.347
19 | RRIRDRPPRLPRPRPRPARWPRP | 0.824
20 | RRIRERPPRLPRPRPRPVITPRP | -0.145
21 | RRIRVRPPRLPRPRPRPPDGPRP | 0.422
22 | RRIRVRPPRLPRPRPRPTVFPRP | -0.0187
23 | RRIRARPPRLPRPRPRPVWPPRP | 0.623
24 | RRIRWRPPRLPRPRPRPPGFPRP | 0.209
25 | RRIRFRPPRLPRPRPRPHKIPRP | -0.495

Row | Sequence | shrunken log2 fold change
26 | RRIRTRPPRLPRPRPRPVYHPRP | -1.34
27 | RRIRARPPRLPRPRPRPLDLPRP | 0.227
28 | RRIRWRPPRLPRPRPRPDSPPRP | 0.0588
29 | RRIRPRPPRLPRPRPRPSGPPRP | -0.174
30 | RRIRTRPPRLPRPRPRPYIEPRP | -1.14
31 | RRIRTRPPRLPRPRPRPQKLPRP | -0.364
32 | RRIRCRPPRLPRPRPRPVWQPRP | -0.063
33 | RRIRIRPPRLPRPRPRPHLMPRP | -1.31
34 | RRIRGRPPRLPRPRPRPFAAPRP | 1.82
35 | RRIRDRPPRLPRPRPRPWFSPRP | -0.317
36 | RRIRHRPPRLPRPRPRPYNMPRP | -0.186
37 | RRIRSRPPRLPRPRPRPLFHPRP | -0.63
38 | RRIRVRPPRLPRPRPRPLQVPRP | -0.0194
39 | RRIRVRPPRLPRPRPRPMDAPRP | 0.0377
40 | RRIRWRPPRLPRPRPRPNRAPRP | 0.0222
41 | RRIRKRPPRLPRPRPRPLPPPRP | 1.01
42 | RRIRARPPRLPRPRPRPLWIPRP | -0.0129
43 | RRIRCRPPRLPRPRPRPEFVPRP | 0.105
44 | RRIRNRPPRLPRPRPRPNECPRP | -0.124
45 | RRIRCRPPRLPRPRPRPTDVPRP | -0.461
46 | RRIRYRPPRLPRPRPRPAKMPRP | -0.329
47 | RRIRCRPPRLPRPRPRPYHYPRP | -0.364
48 | RRIRTRPPRLPRPRPRPEWPPRP | 0.351
49 | RRIRARPPRLPRPRPRPKIRPRP | 0.379
50 | RRIRWRPPRLPRPRPRPPHMPRP | 0.112

Row | Sequence | shrunken log2 fold change
51 | RRIRMRPPRLPRPRPRPYNLPRP | 0.227
52 | RRIRQRPPRLPRPRPRPNMLPRP | -0.285
53 | RRIRVRPPRLPRPRPRPTTVPRP | -0.241
54 | RRIRKRPPRLPRPRPRPYCKPRP | 0.0355
55 | RRIRFRPPRLPRPRPRPNNGPRP | -0.151
56 | RRIRWRPPRLPRPRPRPYGAPRP | -0.0532
57 | RRIRWRPPRLPRPRPRPWRLPRP | -0.172
58 | RRIRCRPPRLPRPRPRPAIEPRP | -0.384
59 | RRIRSRPPRLPRPRPRPSNWPRP | -0.237
60 | RRIRTRPPRLPRPRPRPIKFPRP | -0.0306
61 | RRIRARPPRLPRPRPRPNQGPRP | 0.392
62 | RRIRFRPPRLPRPRPRPEQYPRP | -0.234
63 | RRIRERPPRLPRPRPRPYVQPRP | -0.0184
64 | RRIRDRPPRLPRPRPRPIEPPRP | -0.0685
65 | RRIRFRPPRLPRPRPRPFLAPRP | -0.486
66 | RRIRARPPRLPRPRPRPHYNPRP | -0.467
67 | RRIRRRPPRLPRPRPRPQVIPRP | -0.0307
68 | RRIRWRPPRLPRPRPRPQVGPRP | 0.0734
69 | RRIRERPPRLPRPRPRPMYPPRP | -0.0412
70 | RRIRTRPPRLPRPRPRPDTIPRP | -0.0386
71 | RRIRNRPPRLPRPRPRPREYPRP | 0.0336
72 | RRIRSRPPRLPRPRPRPDGFPRP | -0.0636
73 | RRIRQRPPRLPRPRPRPLSTPRP | 0.175
74 | RRIRGRPPRLPRPRPRPWRLPRP | -0.0196
75 | RRIRMRPPRLPRPRPRPPFLPRP | 0.305

Reference: the supplement of paper PMC9112550, “Optimization of the antimicrobial peptide Bac7 by deep mutational scanning” (BMC Biology, 2022)
